Data on 17 molecules can be found in patent publication US20250026813A1 (published 2025).

Where a chain is given by its changes, count along the chain named. Where “and” joins values, the source holds several entries; their conditions need not be identical. Equal entries are not always repeated.

Assay [1] deals with SARS-CoV-2 S2 spike domain (Sino Biological) (SARS-CoV-2, UniProt P0DTC2 686-1213).
Assay [2] has as its target SARS-CoV-2 spike protein trimer, wild type (FIG. 2A sequence) with C-terminal trimerisation domain (SARS-CoV-2, UniProt P0DTC2 14-1213).
Assay [3] has as its target T1, Receptor binding domain (Neil King, University of Washington) (SARS-CoV-2, UniProt P0DTC2 328-531). The assay is described as follows: SPR (Biacore 8K), antibody captured by anti-hFc, RBD as analyte.
In assay [4] the target is T1, Receptor binding domain (Neil King, …).
Assay [5] addresses SARS-CoV-2 spike N-terminal domain (NTD), antigen of Example 10 (SARS-CoV-2, UniProt P0DTC2 14-305).
Assay [6] concerns the target SARS-CoV-2 spike receptor binding domain (RBD), antigen of Example 10 (SARS-CoV-2, UniProt P0DTC2 319-541).
The target in assay [7] is SARS-CoV-2 spike protein on live virus SARS-CoV-2 Victoria/01/2020 (SARS-CoV-2, UniProt P0DTC2 14-1273). The assay is described as follows: cell-based or functional assay.
Assay [8] concerns the target RBD domain of the SARS-CoV-2 spike protein (Acro Biosystems SPD-C52H3), His tag (SARS-CoV-2, UniProt P0DTC2 319-537).
Assay [9] has as its target SARS-CoV-2 spike protein receptor binding domain (isolated RBD) (SARS-CoV-2, UniProt P0DTC2 319-541). The assay is described as follows: SPR (Biacore 8K), IgG1 captured via anti-hFc, RBD as analyte, 1:1 fit.
Assay [10] deals with SARS-CoV-2 spike protein receptor binding domain (RBD) (SARS-CoV-2, UniProt P0DTC2 319-541). The assay is described as follows: HT-SPR (Carterra LSA); IgG captured by anti-human Fc, RBD as analyte, 1:1 fit.

B1: IMPI-013 (antibody, V domains shown)
VH: EVQLVESGGGLVQPGRSLRLSCAASGFTFDDYAMHWVRQTPGKGLEWVSGISWNSGSIGYADSVKGRFTISRDNAKNSLYLQMNSLRAEDTALYYCTKDLGLGIGFYYGLDVWGQGTTVTVSS
VL: AIQMTQSPSSLSTSVGDRVTITCRASQGIRNDLGWYQLKPGKAPKLLIYDASTLQSGVPSRFSGSGSGTDFTLTISSLEPEDLATYYCLHHYTYPWTFGHGTKVELK
B1: the equilibrium dissociation constant (Kd) stood at 0.126 nM in assay [1] and 0.67 nM in assay [2].

B2: IMPI-013 (antibody, V domains shown)
VH: B1 VH
VL: B1 VL
notes: also called IMP-013
For the molecule B2, in [3], the binding result is recorded as “no binding (tested: up to 100 nM analyte)”.

B3: IMPI-006 (antibody, V domains shown)
VH: QLQLQESGPGLVKPSETLSLTCTVSGGSISNSNYYWGWIRQPPGKGLEWIGSIYYSGRTYYNPSLKSRVTISVDTSKNQFSLKLSSVTAADTAVYYCARMGLLWFGEFYGMDVWGQGTTVTVSS
VL: DIQMTQSPSSLSASVGDRVTITCRASQGISSWLAWYQQKPEKAPKSLIYDASSLQRGVPSRFSGSGSGTDFTLTISSLQPEDFASYYCQQYNSYPLTFGGGTRVEIK
Turning to B3, in assay [4], the dissociation constant (Kd) was < 1 nM.

B4: IMPI-068 (antibody, V domains shown)
VH: QVQLVESGGDVVQPGRSLRLSCAASGFTFSRYGMHWVRQAPGKGLEWVAVISYDGSDKYYADSVKGRFTISRDNSKNTLYLQMNSLRAEDTAVYYCAKQLPLYYYYYGMDVWGQGTTVTVSS
VL: AIQLTQSPSSLSASVGDRVTITCRASQGISSALAWYQQKPGKAPNLLIYDASSLESGVPSRFSGSGSGTDFTLTISSLQPEDFATYYCQQFNIYPHTFGPGTKVDIK
As for B4, the Kd in assay [5] came to 2570 nM; in [6], 9.47 nM.

B5: IMPI-055 (antibody, V domains shown)
VH: QVQLVQSGAEVKKPGASVKVSCKASGYTFTSYDINWVRQATGQGLEWMGWMNPNSGNTGYAQKFQGRVTMTRDTSINTAYMELSSLRSEDTAVYFCARGGRYCSDVTCYSGEPFDYWGQGTLVTVSS
VL: EIMLTQSPDFQSVTPKEKVTITCRASQSIGSSLHWYQQKPDQSPKLLIKFASQSISGVPSRFSGSGSGTDFTLTINSLEAEDAAAYYCHQSSSLPHTFGPGTKVEIK
Turning to B5, the Kd in assay [4] was < 1 nM.

B6: IMPI-004 (antibody, V domains shown)
VH: QVQLVESGGGVVQPGRSLRLSCAASGFTFSSYGMHWVRQAPGKGLEWVAVIWYDGGNKYYADSVKGRFTISRDNSKNTLYLQMNSLRAEDTAVYYCARVNVLMGYGMDVWGQGTTVTVSS
VL: EIVLTQSPGTLSLSPGDKATLSCRASQSIISSFLAWYQQKPGQAPRLLIYGASSRATGIPDRFSGSGSGTDFTLTISRLEPEDFAVYYCQQYGSSLTFGGGTKVEIK
B6: the “IC50, live virus foci (plaque) reduction neutralisation assay on Vero cells” value in assay [7] is 13 ng/ml and 86 pM.

B7: IMPI-063 (antibody, V domains shown)
VH: EVQLVESGGGVVRPGGSLRLSCAASGFTFDDYGMSWVRQAPGKGLEWVSGIYWNGGSTGYADSVKGRFTISRDNAKNSLYLQMNSLRAEDMALYYCARGVGATDYWGQGTLVTVSS
VL: EIVLTQSPGTLSLSSGERATLACRASESVRGSFLAWYQQKPGQAPRLLIYGASRRATGIPDRFSGSGSGTDFTLTISRLEPEDFAVYYCQQYGNSPMCSFGQGTKLEIK
Turning to B7, in assay [1], the dissociation constant Kd turned out to be 0.845 nM, the koff came to 7.77 s⁻¹ and the kon was determined as 9.19e+09 M⁻¹ s⁻¹. In assay [2], the equilibrium dissociation constant (Kd) amounted to 2.29 nM, the koff was 0.000939 s⁻¹ and the on-rate (kon) stood at 411000 M⁻¹ s⁻¹.

B8: IMPI-063 (antibody, V domains shown)
VH: B7 VH
VL: B7 VL
On to B8, for which, in [3], the binding result is “no binding (tested: up to 100 nM analyte)”.

B9: IMPI-059 (antibody, V domains shown)
VH: EVQLVESGGGLIQPGGSLRLSCAASGFTVSSIYMSWVRQAPGKGLEWVSIIYSRGSTDYADSVKGRFTISRDISKNTLYLQMNSLRAEDTAVYYCARDGTMVRGVHAFDIWGQGTMVTVSS
VL: DIQMTQSPPSLSASIGDRVTITCQASQDISNYLNWYQQKPGKAPKLLIYDASNLETGVPSRFSGSGSGTDFTLTISNLQPEDIVTYYCQQYDNLPSSFGQGTKLEIK
As to B9, the Kd in assay [4] was < 1 nM. In [7], the “IC50, live virus foci (plaque) reduction neutralisation assay on Vero cells” value was 0.026 nM.

B10: IMPI-059 (antibody, V domains shown)
VH: B9 VH
VL: B9 VL
With B10, the Kd in assay [5] was 1650 nM; in assay [6] it was 2.3 nM.

B11: IMPI-002 (antibody, V domains shown)
VH: EVQLVESGGGLIQPGGSLRLSCAASGVTVSSNYMSWVRQAPGKGLEGVSVIYSGGSTYYADSVKGRFTISRDNSKNTLYLQMNSLRAEDTAVYYCARDTVVYGMDVWGQGTTVTVSS
VL: DIQLTQSPSFLSASVGDRVTITCWASQGISSYLAWYQQKPGKAPKLLIYAASTLQSGVPSRFSGSGSGTEFTLTISSLQPEDFATYYCQQLNSYPLTFGGGTKVEIK
Take B11: in assay [8], the “HTRF deltaF” value worked out at 172 deltaF.

B12: IMPI-029 (antibody, V domains shown)
VH: B11 VH with S35N, G47W, Y79F, T90S, T99L, V100G, V101P, M104V
VL: B11 VL with Q90E, G100Q, K103R, V104L
Regarding B12, the dissociation constant (Kd) in assay [4] was < 1 nM.

B13: IMPI-052 (antibody, V domains shown)
VH: B11 VH with S35N, S56T
VL: B11 VL with A50T
B13 came in with an equilibrium dissociation constant (Kd) in assay [9] of 13.2 nM.

B14: IMPI-056 (antibody, V domains shown)
VH: EVQLVESGGGLIQPGGSLRLSCAASGLTVSSNYMNWVRQAPGKKLEWVSVIYSGGSTFYADSVRGRFTISRDNSKNTLFLQMNSLRAEDSAVYYCARDLGPYGVDVWGQGTTVTVSS
VL: B11 VL with G100Q, K103R, V104L
As for B14, the Kd in [5] was found to be 682 nM; in [6], 1.59 nM.

B15: IMPI-052 (antibody, V domains shown)
VH: B11 VH with S35N, S56T
VL: B11 VL with A50T
In the case of B15, the “HTRF deltaF” value in assay [8] turned out to be 229 deltaF.

B16: IMPI-056 (antibody, V domains shown)
VH: B14 VH
VL: B11 VL with G100Q, K103R, V104L
On to B16, for which the Kd in assay [4] was < 1 nM.

B17: IMPI-052 (antibody, V domains shown)
VH: B11 VH with S35N, S56T
VL: B11 VL with A50T
In the case of B17, in assay [10], the affinity, expressed as Kd, was 24.1 nM. In other words, the double-digit nanomolar range.
